Reference: publication PMC5323315 (Molecular microbiology, 2017)

Molecular target: T1, DnaAΔC with a C-terminal hexa-histidine tag (B. subtilis, UniProt P05648 1-355)
T1 sequence (looked up): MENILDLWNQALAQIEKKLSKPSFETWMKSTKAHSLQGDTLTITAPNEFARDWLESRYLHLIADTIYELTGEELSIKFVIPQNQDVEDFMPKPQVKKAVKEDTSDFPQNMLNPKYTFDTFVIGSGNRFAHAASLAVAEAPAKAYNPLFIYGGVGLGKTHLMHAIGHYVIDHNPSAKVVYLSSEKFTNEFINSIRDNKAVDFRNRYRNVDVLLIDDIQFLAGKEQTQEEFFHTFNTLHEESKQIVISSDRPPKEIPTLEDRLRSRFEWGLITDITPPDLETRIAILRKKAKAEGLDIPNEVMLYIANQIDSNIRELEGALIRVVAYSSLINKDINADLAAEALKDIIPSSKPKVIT
Assay: native gel or EMSA

B1: Rok with a C-terminal hexa-histidine tag (natural protein, B. subtilis, UniProt O34857 1-191, looked up)
chain: MFNEREALRLRLEQLNEAEVKVIREYQIERDKIYAKLRELDRNGSPSEIKKDFRSEKKPDSLPVLAELAAQEIRSYQPQSQQQSVQPQLQSISSLPAGIPDGTTRRRRGTARPGSKAAKLREAAIKTLKRHNAAIKSSELQKEIEKESGLEIPNMTTFMQSLIKMYPEVKKPYRGQYILEGEIESAESANE
binding result: binds
